Laboratory results reported in paper PMC10786891, “Massively parallel profiling of RNA-targeting CRISPR-Cas13d”.
Changes are numbered by the printed parent chain. Names may count otherwise.

T1: EsCas13d, nuclease-dead (Eubacterium siraeum, UniProt B0MS50, R295A;H300A;R849A;H854A)
T1 sequence: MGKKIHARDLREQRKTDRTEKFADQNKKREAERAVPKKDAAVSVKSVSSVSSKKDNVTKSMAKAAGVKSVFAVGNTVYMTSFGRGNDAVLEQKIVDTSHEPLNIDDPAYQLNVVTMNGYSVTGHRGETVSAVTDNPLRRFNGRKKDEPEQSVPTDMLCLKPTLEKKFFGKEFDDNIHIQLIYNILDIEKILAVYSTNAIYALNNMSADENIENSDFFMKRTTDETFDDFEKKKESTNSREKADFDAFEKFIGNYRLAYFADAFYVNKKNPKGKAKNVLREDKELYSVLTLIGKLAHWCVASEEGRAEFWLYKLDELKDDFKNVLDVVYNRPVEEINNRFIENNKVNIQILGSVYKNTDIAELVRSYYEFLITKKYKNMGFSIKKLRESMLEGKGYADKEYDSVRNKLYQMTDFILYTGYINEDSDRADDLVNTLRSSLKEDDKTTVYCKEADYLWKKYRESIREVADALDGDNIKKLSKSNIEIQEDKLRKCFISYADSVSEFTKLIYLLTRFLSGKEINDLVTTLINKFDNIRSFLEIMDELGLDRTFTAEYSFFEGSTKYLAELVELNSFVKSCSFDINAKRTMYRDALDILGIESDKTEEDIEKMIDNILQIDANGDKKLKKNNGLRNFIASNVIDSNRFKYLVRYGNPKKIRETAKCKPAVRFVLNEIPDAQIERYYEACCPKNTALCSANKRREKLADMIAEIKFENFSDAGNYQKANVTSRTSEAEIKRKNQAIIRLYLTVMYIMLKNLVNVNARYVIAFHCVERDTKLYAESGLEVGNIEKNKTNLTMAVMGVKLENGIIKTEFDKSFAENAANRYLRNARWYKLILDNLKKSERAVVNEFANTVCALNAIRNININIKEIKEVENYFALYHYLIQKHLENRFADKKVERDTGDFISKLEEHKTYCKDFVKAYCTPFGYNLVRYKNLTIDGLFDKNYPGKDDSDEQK

B1: target 1 MT 5'PFS GAA 3'PFS ACU (mixed)
RNA 1: CACCCGUGCAAAAAUGCAGGGGUCUAAAACUGAGCGGAUAACCUCUCUAUGG
RNA 2: GGGAAUGGAUCCACAUCUACGAAUUCGAACCAUAGAGAGGUUAUCCGCUCAACUAGAUCGGAAGAGCACACGU
B2: target 1 MT 5'PFS AGA 3'PFS UUA (mixed)
RNA 1: B1 RNA 1
RNA 2: B1 RNA 2 with G27A, A28G, A52U, C53U, U54A
B3: target 1 MT 5'PFS ACG 3'PFS UCG (mixed)
RNA 1: B1 RNA 1
RNA 2: B1 RNA 2 with G27A, A28C, A29G, A52U, U54G
B4: target 1 C6U,G12C (mixed)
RNA 1: B1 RNA 1
RNA 2: B1 RNA 2 with A28U, G40C, C46U, A52C, U54G
B5: target 1 insC 3' of 17,insU 3' of 4 (mixed)
RNA 1: B1 RNA 1
RNA 2: GGGAAUGGAUCCACAUCUACGAAUUCGUACCAUAGCAGAGGUUAUCCGCUUCACCGAGAUCGGAAGAGCACACGU
B6: target 1 MT 5'PFS CCU 3'PFS UUA (mixed)
RNA 1: B1 RNA 1
RNA 2: B1 RNA 2 with G27C, A28C, A29U, A52U, C53U, U54A
B7: target 1 MT 5'PFS CUU 3'PFS UUA (mixed)
RNA 1: B1 RNA 1
RNA 2: B1 RNA 2 with G27C, A28U, A29U, A52U, C53U, U54A
B8: target 1 MT 5'PFS GUA 3'PFS AUC (mixed)
RNA 1: B1 RNA 1
RNA 2: B1 RNA 2 with A28U, C53U, U54C
B9: target 1 MT 5'PFS CUU 3'PFS UUC (mixed)
RNA 1: B1 RNA 1
RNA 2: B1 RNA 2 with G27C, A28U, A29U, A52U, C53U, U54C
B10: target 1 MT 5'PFS CCU 3'PFS UUC (mixed)
RNA 1: B1 RNA 1
RNA 2: B1 RNA 2 with G27C, A28C, A29U, A52U, C53U, U54C
B11: target 1 MT 5'PFS UAA 3'PFS CCU (mixed)
RNA 1: B1 RNA 1
RNA 2: B1 RNA 2 with G27U, A52C
B12: target 1 MT 5'PFS UAC 3'PFS UUG (mixed)
RNA 1: B1 RNA 1
RNA 2: B1 RNA 2 with G27U, A29C, A52U, C53U, U54G
B13: target 1 MT 5'PFS CAC 3'PFS UCG (mixed)
RNA 1: B1 RNA 1
RNA 2: B1 RNA 2 with G27C, A29C, A52U, U54G
B14: target 1 MT 5'PFS CAG 3'PFS UAC (mixed)
RNA 1: B1 RNA 1
RNA 2: B1 RNA 2 with G27C, A29G, A52U, C53A, U54C
B15: target 1 MT 5'PFS CCU 3'PFS UUG (mixed)
RNA 1: B1 RNA 1
RNA 2: B1 RNA 2 with G27C, A28C, A29U, A52U, C53U, U54G
B16: target 1 MT 5'PFS AGA 3'PFS UUC (mixed)
RNA 1: B1 RNA 1
RNA 2: B1 RNA 2 with G27A, A28G, A52U, C53U, U54C
B17: target 1 MT 5'PFS AGG 3'PFS UCG (mixed)
RNA 1: B1 RNA 1
RNA 2: B1 RNA 2 with G27A, A28G, A29G, A52U, U54G
B18: target 1 MT 5'PFS GUA 3'PFS AUG (mixed)
RNA 1: B1 RNA 1
RNA 2: B1 RNA 2 with A28U, C53U, U54G
B19: target 1 MT 5'PFS GGA 3'PFS CGA (mixed)
RNA 1: B1 RNA 1
RNA 2: B1 RNA 2 with A28G, A52C, C53G, U54A
B20: target 1 MT 5'PFS GUG 3'PFS UCU (mixed)
RNA 1: B1 RNA 1
RNA 2: B1 RNA 2 with A28U, A29G, A52U
B21: target 1 MT 5'PFS GUA 3'PFS AUU (mixed)
RNA 1: B1 RNA 1
RNA 2: B1 RNA 2 with A28U, C53U
B22: target 1 MT 5'PFS AGA 3'PFS UUU (mixed)
RNA 1: B1 RNA 1
RNA 2: B1 RNA 2 with G27A, A28G, A52U, C53U
B23: target 1 MT 5'PFS GUG 3'PFS UCA (mixed)
RNA 1: B1 RNA 1
RNA 2: B1 RNA 2 with A28U, A29G, A52U, U54A
B24: target 1 MT 5'PFS ACG 3'PFS UCU (mixed)
RNA 1: B1 RNA 1
RNA 2: B1 RNA 2 with G27A, A28C, A29G, A52U
B25: target 1 MT 5'PFS UUA 3'PFS UGA (mixed)
RNA 1: B1 RNA 1
RNA 2: B1 RNA 2 with G27U, A28U, A52U, C53G, U54A
B26: target 1 MT 5'PFS GGA 3'PFS CGC (mixed)
RNA 1: B1 RNA 1
RNA 2: B1 RNA 2 with A28G, A52C, C53G, U54C
B27: target 1 MT 5'PFS UAA 3'PFS CCG (mixed)
RNA 1: B1 RNA 1
RNA 2: B1 RNA 2 with G27U, A52C, U54G
B28: target 1 insU 3' of 12,insU 3' of 6 (mixed)
RNA 1: B1 RNA 1
RNA 2: B5 RNA 2 with C36A, A37G, G38A, A39G, G41U, G48U, C49G, U50C
B29: target 1 MT 5'PFS GUG 3'PFS UCC (mixed)
RNA 1: B1 RNA 1
RNA 2: B1 RNA 2 with A28U, A29G, A52U, U54C
B30: target 1 MT 5'PFS AGG 3'PFS UCU (mixed)
RNA 1: B1 RNA 1
RNA 2: B1 RNA 2 with G27A, A28G, A29G, A52U
B31: target 1 MT 5'PFS CAC 3'PFS UCC (mixed)
RNA 1: B1 RNA 1
RNA 2: B1 RNA 2 with G27C, A29C, A52U, U54C
B32: target 1 MT 5'PFS ACG 3'PFS UCC (mixed)
RNA 1: B1 RNA 1
RNA 2: B1 RNA 2 with G27A, A28C, A29G, A52U, U54C
B33: target 1 MT 5'PFS GUG 3'PFS UCG (mixed)
RNA 1: B1 RNA 1
RNA 2: B1 RNA 2 with A28U, A29G, A52U, U54G
B34: target 1 U8A,U19C (mixed)
RNA 1: B1 RNA 1
RNA 2: B1 RNA 2 with A28U, U33C, U44A, A52C, U54G
B35: target 1 MT 5'PFS CUU 3'PFS UUG (mixed)
RNA 1: B1 RNA 1
RNA 2: B1 RNA 2 with G27C, A28U, A29U, A52U, C53U, U54G
B36: target 1 MT 5'PFS CUA 3'PFS UUG (mixed)
RNA 1: B1 RNA 1
RNA 2: B1 RNA 2 with G27C, A28U, A52U, C53U, U54G
B37: target 1 MT 5'PFS CUA 3'PFS UUC (mixed)
RNA 1: B1 RNA 1
RNA 2: B1 RNA 2 with G27C, A28U, A52U, C53U, U54C
B38: target 1 MT 5'PFS GGA 3'PFS CGG (mixed)
RNA 1: B1 RNA 1
RNA 2: B1 RNA 2 with A28G, A52C, C53G, U54G
B39: target 1 MT 5'PFS AGA 3'PFS UUG (mixed)
RNA 1: B1 RNA 1
RNA 2: B1 RNA 2 with G27A, A28G, A52U, C53U, U54G
B40: target 1 MT 5'PFS GUA 3'PFS AUA (mixed)
RNA 1: B1 RNA 1
RNA 2: B1 RNA 2 with A28U, C53U, U54A

Target: T1, EsCas13d, nuclease-dead
Test: crRNA (strand 1, pre-loaded); Mg2+; 40 mM Tris-HCl pH 7.5, 150 mM NaCl, 6 mM MgCl2, 1 mM DTT, 0.1% Tween-20, 0.2 mg/ml BSA; 25 C; 10 min per concentration, then washed
Conditions: tags: His6-TwinStrep-SUMO cleaved; N-terminal SNAP kept (SNAP-Surface 488); label: 3' end held by stalled T7 RNA polymerase

Row | Binder | Kd
1 | B1 | 34 ± 12.5 nM
2 | B2 | 42 ± 11 nM
3 | B3 | 24 ± 6 nM
4 | B4 | 12.9 ± 1.1 nM
5 | B5 | 46 ± 4 nM
6 | B6 | 14.3 ± 2.75 nM
7 | B7 | 20.9 ± 4.25 nM
8 | B8 | 14.8 ± 1.45 nM
9 | B9 | 14.2 ± 2.55 nM
10 | B10 | 32.5 ± 9.5 nM
11 | B11 | 22 ± 11 nM
12 | B12 | 7.55 ± 1.15 nM
13 | B13 | 8.65 ± 3.7 nM
14 | B14 | 11.9 ± 4 nM
15 | B15 | 11.7 ± 2.5 nM
16 | B16 | ~22 nM
17 | B17 | 51 ± 21 nM
18 | B18 | 14 ± 0.85 nM
19 | B19 | 33.5 ± 10 nM
20 | B20 | 10.3 ± 0.7 nM

Row | Binder | Kd
21 | B21 | 12.9 ± 1.15 nM
22 | B22 | 27.5 ± 11 nM
23 | B23 | 14.5 ± 1.45 nM
24 | B24 | 9.65 ± 2.55 nM
25 | B25 | 100 ± 40 nM
26 | B26 | 28.5 ± 11 nM
27 | B27 | 47.5 ± 15.5 nM
28 | B28 | 9.5 ± 0.4 nM
29 | B29 | 10.9 ± 1.1 nM
30 | B30 | 30.5 ± 9 nM
31 | B31 | 20.5 ± 6.5 nM
32 | B32 | ~31 nM
33 | B33 | 10.5 ± 0.62 nM
34 | B34 | 56 ± 9 nM
35 | B35 | 29.5 ± 7.5 nM
36 | B36 | 5.7 ± 0.65 nM
37 | B37 | 6.85 ± 2.1 nM
38 | B38 | 20.6 ± 3.8 nM
39 | B39 | 50 ± 18 nM
40 | B40 | 14.1 ± 1.15 nM
